Data from patent US7138236B1, “Interactions of ATM, ATR or DAN-PK with p53” (Kudos Pharmaceuticals Limited, priority 1997, dated 2006).
Square brackets hold non-standard residues; d marks the D form. pT = C[C@@H](OP(=O)(O)O)[C@H](N)C(=O)O

biological target: Mdm-2 (Homo sapiens, UniProt Q00987); experiment: Mdm-2 binding of p53-derived peptides by ELISA analysis; conditions: peptides containing p53 residues 11 to 25, unphosphorylated or phosphorylated on Ser15 and/or Thr18
Method: To test whether phosphorylation on Ser15 or Thr18 of p53 affects its interaction with Mdm-2, phosphorylated and unphosphorylated p53-derived peptides were generated and were assessed for Mdm-2 binding by ELISA analysis. The four peptides used contained p53 residues 11 to 25 (in the sequence (SEQ ID NO:11) NH2-SGSGEPPLSOETFSDLWKL-COOH; where the underlined sequence is that derived from p53) that were unphosphorylated (1); phosphorylated on residue equivalent to p53 residue Ser15(2); phosphorylated on residue equivalent to p53 residue Thr18(3); or phosphorylated on two residues, equivalent to p53 residue Ser15 and Thr18(4). […] We therefore conclude that phosphorylation on Thr18 of p53 has a dramatic effect on its interaction with […] and that phosphorylation of this site is likely to play a key role in regulating p53 responses in vivo.

Mdm-2, sequence (Q00987 whole entry, species assumed, the tested form may be a part): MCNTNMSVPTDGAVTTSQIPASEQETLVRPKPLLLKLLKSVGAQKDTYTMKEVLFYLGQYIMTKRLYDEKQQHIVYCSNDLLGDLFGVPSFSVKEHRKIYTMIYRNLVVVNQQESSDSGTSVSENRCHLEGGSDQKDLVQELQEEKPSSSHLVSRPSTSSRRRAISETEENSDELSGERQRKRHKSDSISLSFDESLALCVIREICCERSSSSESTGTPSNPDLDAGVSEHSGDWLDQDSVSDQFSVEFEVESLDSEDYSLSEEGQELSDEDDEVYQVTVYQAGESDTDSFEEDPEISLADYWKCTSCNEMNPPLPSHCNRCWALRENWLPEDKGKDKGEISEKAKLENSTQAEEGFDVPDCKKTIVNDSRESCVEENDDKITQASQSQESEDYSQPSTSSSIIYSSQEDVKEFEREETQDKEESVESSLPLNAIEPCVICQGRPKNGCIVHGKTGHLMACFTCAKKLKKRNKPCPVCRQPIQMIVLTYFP

Substance | Mdm-2 binding of p53-derived peptides
NH2-SGSGEPPLSOETFSDLWKL-COOH [3] (H-SGSGEPPLSQE[pT]FSDLWKL-OH; SMILES CC(C)C[C@H](NC(=O)[C@H](CCCCN)NC(=O)[C@H](Cc1c[nH]c2ccccc12)NC(=O)[C@H](CC(C)C)NC(=O)[C@H](CC(=O)O)NC(=O)[C@H](CO)NC(=O)[C@H](Cc1ccccc1)NC(=O)[C@@H](NC(=O)[C@H](CCC(=O)O)NC(=O)[C@H](CCC(N)=O)NC(=O)[C@H](CO)NC(=O)[C@H](CC(C)C)NC(=O)[C@@H]1CCCN1C(=O)[C@@H]1CCCN1C(=O)[C@H](CCC(=O)O)NC(=O)CNC(=O)[C@H](CO)NC(=O)CNC(=O)[C@@H](N)CO)[C@@H](C)OP(=O)(O)O)C(=O)O; UniProt P04637 11-25, looked up, fragment) [compound 3, peptide containing p53 residues 11 to 25, phosphorylated on residue equivalent to Thr18] | inhibited dramatically
NH2-SGSGEPPLSOETFSDLWKL-COOH [compound 4] | inhibited dramatically
NH2-SGSGEPPLSOETFSDLWKL-COOH [peptide 1] (H-SGSGEPPLSQETFSDLWKL-OH; UniProt P04637 11-25, looked up, fragment) [peptide containing p53 residues 11 to 25, unphosphorylated] | occurred effectively
NH2-SGSGEPPLSOETFSDLWKL-COOH [peptide 2] (EPPLSQETFSDLWKL; phospho-Ser15; N-terminal SGSG linker; UniProt P04637 11-25, looked up, fragment) [peptide containing p53 residues 11 to 25, phosphorylated on residue equivalent to Ser15] | only impaired slightly
